From publication PMC6981144 come the findings set out here.

For assay [1], the target named is human SNAP_GLP1R (SNAP-tagged glucagon-like peptide-1 receptor) (human) (UniProt P43220). As to the kind of experiment: fluorescent ligand labelling of cells, confocal microscopy; transiently transfected YFP-AD293-SNAP_GLP1R cells; increasing concentrations of compound applied for 60 min; control cells without GLP1R.
For assay [2] the target is unchanged.

Chain of human SNAP_GLP1R (SNAP-tagged glucagon-like peptide-1 receptor) (human) (P43220 24-463): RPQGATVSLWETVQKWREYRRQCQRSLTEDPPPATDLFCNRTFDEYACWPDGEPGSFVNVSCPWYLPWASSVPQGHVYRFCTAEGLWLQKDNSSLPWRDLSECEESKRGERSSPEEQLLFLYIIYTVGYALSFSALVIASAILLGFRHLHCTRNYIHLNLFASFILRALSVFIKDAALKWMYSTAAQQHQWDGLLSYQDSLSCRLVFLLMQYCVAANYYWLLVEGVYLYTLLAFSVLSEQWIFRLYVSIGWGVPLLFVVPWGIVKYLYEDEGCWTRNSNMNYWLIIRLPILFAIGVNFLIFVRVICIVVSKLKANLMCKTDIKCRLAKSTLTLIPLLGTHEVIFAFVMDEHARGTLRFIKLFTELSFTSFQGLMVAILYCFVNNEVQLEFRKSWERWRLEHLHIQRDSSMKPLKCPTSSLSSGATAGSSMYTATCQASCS

LUXendin555 (peptide) gave a concentration of maximal labelling in assay [1] of 600 nM. For the substance LUXendin645 (peptide), the cAMP production (EC50) in HEK293-SNAP GLP1R cells, 30 min stimulation, with the positive allosteric modulator BETP (25 µM) in assay [2] worked out at 192 nM. In addition, the concentration of maximal labelling in assay [1] lay in the range of 250 to 500 nM.
